Source: paper PMC12122859 (Communications Biology, 2025)

Tests used:
[1] = biological target: membrane-bound recombinant E1E2 (hepatitis C virus (strain not stated))
[2] = biological target: soluble recombinant E1E2 (hepatitis C virus (strain not stated))
[3] = biological target: T1, E2 alone (as compared with E1E2) (Hepatitis C virus genotype 1b, strain …)
T1 chain: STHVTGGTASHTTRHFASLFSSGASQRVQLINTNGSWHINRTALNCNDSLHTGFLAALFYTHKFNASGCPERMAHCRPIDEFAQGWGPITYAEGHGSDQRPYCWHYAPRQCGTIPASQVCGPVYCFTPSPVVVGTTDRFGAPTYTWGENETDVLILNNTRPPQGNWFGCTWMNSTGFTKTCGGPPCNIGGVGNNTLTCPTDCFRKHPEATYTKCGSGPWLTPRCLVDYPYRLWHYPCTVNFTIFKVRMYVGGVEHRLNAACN

B1: CBH4B (antibody, format not stated, as tested on E1E2 and E2 alone) (antibody, V domains shown)
VH: QIQLVQSGAEVKKPGSSVKVSCRASGGSFGTYGITWVRQAPGQGLEWVGGIVPLFDRPNYAQKFQDRVAITADESTSTAYMELSSLRFDDTAVYYCAREADIVVGGSSYFDSWGQGTLVTVTK
VL: ESVLTQSPGTLSLSPGERATLSCRASQSVSSTYVAWYQQKPGQAPRLLIYDASIRATGVPDRFSGGGSGTDFTLTISRLEPEDFAVYYCQQYGGSPFFGGGTKVEIK
Kd [1]: 3.1 nM
Kd [2]: 19 nM
Kd [3]: 0.08 nM
